{
  "source": "patent EP2420255A2",
  "about": "(Ecole Polytechnique Federale De Lausanne (EPFL), dated 2012)",
  "key": {"[1]": {"molecular_target": "T1, human urokinase-type plasminogen activator (UPA-LMW, from human urine, 33 kDa) (human, UniProt P00749 156-431)", "assay": "enzyme inhibition, Ki"}, "[2]": {"molecular_target": "T2, mouse uPA (MUPA-LMW, recombinantly produced in insect cells, 31 kDa) (mouse, UniProt P06869 157-433, limits assumed)", "T2 construct": "also called murine uPA", "T2 sequence (P06869 157-433 limits assumed)": "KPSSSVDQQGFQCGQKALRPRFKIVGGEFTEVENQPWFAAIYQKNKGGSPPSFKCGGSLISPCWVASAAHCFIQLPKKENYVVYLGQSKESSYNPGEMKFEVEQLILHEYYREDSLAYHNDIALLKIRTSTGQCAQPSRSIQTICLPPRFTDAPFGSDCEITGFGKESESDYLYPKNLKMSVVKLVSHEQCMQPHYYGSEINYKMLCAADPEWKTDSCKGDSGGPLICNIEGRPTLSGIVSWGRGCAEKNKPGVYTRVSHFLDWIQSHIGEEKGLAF", "assay": "enzyme inhibition, Ki"}, "[3]": {"molecular_target": "T3, human plasma kallikrein (IHPKA, from human plasma, 86 kDa) (human, UniProt P03952 20-638)", "T3 sequence (P03952 20-638 limits assumed)": "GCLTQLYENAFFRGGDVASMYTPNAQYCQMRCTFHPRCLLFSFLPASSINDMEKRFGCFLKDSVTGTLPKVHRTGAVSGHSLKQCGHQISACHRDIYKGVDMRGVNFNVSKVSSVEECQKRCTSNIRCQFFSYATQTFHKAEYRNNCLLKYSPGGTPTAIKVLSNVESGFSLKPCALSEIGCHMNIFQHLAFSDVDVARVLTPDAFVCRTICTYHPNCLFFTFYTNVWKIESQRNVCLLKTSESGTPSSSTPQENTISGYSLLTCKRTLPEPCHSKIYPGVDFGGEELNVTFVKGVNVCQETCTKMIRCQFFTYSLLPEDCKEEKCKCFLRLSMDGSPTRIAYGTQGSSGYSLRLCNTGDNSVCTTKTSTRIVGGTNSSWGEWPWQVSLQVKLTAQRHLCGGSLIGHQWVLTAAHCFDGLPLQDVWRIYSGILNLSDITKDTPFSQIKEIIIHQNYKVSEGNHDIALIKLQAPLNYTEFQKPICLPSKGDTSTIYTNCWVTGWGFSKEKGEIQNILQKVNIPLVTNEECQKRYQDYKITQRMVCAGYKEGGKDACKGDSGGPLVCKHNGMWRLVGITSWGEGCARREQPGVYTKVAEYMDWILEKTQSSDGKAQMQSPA", "assay": "cell-based or functional assay"}, "[4]": {"molecular_target": "T1, human urokinase-type plasminogen …", "assay": "cell-based or functional assay"}, "[5]": {"molecular_target": "T2, mouse uPA (MUPA-LMW, recombinantly …)", "assay": "cell-based or functional assay"}, "[6]": {"molecular_target": "T4, human trypsin (HTRYP, from human pancreas, 25 kDa) (human, UniProt P07477 24-247)", "assay": "cell-based or functional assay"}, "[7]": {"molecular_target": "T5, mouse tPA (MTPA, recombinantly produced in insect cells, 70 kDa) (mouse, UniProt P11214 33-559, limits assumed)", "T5 sequence (P11214 33-559 limits assumed)": "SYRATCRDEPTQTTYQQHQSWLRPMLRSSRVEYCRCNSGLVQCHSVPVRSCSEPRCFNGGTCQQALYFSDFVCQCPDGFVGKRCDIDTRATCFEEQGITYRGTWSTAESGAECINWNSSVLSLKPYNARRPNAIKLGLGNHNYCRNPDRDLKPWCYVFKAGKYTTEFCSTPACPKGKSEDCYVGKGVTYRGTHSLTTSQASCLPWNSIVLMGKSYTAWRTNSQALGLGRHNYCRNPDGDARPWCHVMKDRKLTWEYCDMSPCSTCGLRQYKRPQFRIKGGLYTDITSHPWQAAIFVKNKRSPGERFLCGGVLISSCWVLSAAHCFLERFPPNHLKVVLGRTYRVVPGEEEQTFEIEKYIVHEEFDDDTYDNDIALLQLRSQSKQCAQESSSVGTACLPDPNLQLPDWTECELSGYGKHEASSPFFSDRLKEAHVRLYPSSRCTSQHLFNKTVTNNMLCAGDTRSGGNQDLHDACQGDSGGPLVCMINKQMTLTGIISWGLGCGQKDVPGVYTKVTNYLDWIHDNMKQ", "assay": "cell-based or functional assay"}, "[8]": {"molecular_target": "T6, human tPA (HTPA-TC, recombinant, 70 kDa) (human, UniProt P00750 36-562)", "T6 sequence (P00750 36-562 limits assumed)": "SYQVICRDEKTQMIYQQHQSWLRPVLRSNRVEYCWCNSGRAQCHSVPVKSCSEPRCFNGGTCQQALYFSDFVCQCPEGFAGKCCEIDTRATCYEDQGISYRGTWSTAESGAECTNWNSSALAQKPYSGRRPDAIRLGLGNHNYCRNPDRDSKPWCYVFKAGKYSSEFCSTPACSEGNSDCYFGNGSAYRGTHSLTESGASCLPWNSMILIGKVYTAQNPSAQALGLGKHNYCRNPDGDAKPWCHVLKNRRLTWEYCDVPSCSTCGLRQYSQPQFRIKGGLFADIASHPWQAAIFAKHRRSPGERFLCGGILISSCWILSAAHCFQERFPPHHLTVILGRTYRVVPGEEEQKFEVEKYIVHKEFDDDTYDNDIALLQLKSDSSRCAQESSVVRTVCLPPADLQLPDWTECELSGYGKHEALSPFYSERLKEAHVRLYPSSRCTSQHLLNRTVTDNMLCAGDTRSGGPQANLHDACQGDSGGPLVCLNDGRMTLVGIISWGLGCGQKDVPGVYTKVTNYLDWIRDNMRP", "assay": "cell-based or functional assay"}, "[9]": {"molecular_target": "T7, human plasmin (HPLM, from human plasma, 85 kDa) (human, UniProt P00747 97-810, limits assumed)", "T7 sequence (P00747 97-810 limits assumed)": "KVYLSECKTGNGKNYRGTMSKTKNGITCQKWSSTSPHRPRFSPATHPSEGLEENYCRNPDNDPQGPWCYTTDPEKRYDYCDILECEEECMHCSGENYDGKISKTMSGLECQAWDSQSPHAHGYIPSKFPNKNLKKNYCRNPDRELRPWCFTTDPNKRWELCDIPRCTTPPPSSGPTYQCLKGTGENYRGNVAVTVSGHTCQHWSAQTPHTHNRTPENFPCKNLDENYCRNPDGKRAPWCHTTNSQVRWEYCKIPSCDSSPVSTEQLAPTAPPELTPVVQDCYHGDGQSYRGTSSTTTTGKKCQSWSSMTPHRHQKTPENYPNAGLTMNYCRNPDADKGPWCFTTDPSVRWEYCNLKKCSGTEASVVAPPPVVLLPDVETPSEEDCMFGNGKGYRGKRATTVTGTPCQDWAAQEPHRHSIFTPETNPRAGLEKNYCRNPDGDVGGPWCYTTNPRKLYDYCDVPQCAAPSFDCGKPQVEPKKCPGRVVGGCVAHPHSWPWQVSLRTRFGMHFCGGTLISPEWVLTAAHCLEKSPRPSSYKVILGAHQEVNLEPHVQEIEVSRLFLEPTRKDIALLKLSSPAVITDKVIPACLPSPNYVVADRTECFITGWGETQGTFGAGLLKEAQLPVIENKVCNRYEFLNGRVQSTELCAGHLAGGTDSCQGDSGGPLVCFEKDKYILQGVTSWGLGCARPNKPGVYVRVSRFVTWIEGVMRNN", "assay": "cell-based or functional assay"}, "[10]": {"molecular_target": "T8, human factor XIa (IHFXI, from human plasma, 160 kDa) (human, UniProt P03951 19-625)", "T8 sequence (P03951 19-625 limits assumed)": "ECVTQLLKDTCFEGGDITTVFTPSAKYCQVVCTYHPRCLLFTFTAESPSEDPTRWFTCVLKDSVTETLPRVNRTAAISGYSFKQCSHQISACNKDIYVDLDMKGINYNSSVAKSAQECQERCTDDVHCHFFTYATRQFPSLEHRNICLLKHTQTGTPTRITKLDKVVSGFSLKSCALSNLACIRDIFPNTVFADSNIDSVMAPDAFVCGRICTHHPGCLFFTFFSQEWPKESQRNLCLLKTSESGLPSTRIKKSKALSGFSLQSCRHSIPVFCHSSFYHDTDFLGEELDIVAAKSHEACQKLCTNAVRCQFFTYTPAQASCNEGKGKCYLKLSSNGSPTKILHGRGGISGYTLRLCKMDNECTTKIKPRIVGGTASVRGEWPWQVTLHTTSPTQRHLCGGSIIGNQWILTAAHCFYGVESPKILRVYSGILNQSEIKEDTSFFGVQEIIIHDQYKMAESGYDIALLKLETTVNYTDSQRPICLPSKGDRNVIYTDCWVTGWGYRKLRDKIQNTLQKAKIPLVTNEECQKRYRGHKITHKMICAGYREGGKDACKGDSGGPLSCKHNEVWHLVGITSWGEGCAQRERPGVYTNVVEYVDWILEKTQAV", "assay": "cell-based or functional assay"}, "[11]": {"molecular_target": "T9, human thrombin (IHT, from human plasma, 37 kDa) (human, UniProt P00734 328-622)", "assay": "cell-based or functional assay"}, "[12]": {"molecular_target": "T3, human plasma kallikrein (IHPKA, from …)", "assay": "enzyme inhibition, Ki calculated from IC50 by the Cheng-Prusoff equation, pH 7.4, 25 °C"}, "[13]": {"molecular_target": "T1, human urokinase-type plasminogen …", "assay": "enzyme inhibition, Ki calculated from IC50 by the Cheng-Prusoff equation, pH 7.4, 25 °C"}, "[14]": {"molecular_target": "T2, mouse uPA (MUPA-LMW, recombinantly …)", "assay": "enzyme inhibition, Ki calculated from IC50 by the Cheng-Prusoff equation, pH 7.4, 25 °C"}, "[15]": {"molecular_target": "T4, human trypsin (HTRYP, from human …)", "assay": "enzyme inhibition, Ki calculated from IC50 by the Cheng-Prusoff equation, pH 7.4, 25 °C"}, "[16]": {"molecular_target": "T5, mouse tPA (MTPA, recombinantly produced …)", "assay": "enzyme inhibition, Ki calculated from IC50 by the Cheng-Prusoff equation, pH 7.4, 25 °C"}, "[17]": {"molecular_target": "T6, human tPA (HTPA-TC, recombinant, 70 kDa)", "assay": "enzyme inhibition, Ki calculated from IC50 by the Cheng-Prusoff equation, pH 7.4, 25 °C"}, "[18]": {"molecular_target": "T7, human plasmin (HPLM, from human plasma, …)", "assay": "enzyme inhibition, Ki calculated from IC50 by the Cheng-Prusoff equation, pH 7.4, 25 °C"}, "[19]": {"molecular_target": "T8, human factor XIa (IHFXI, from human …)", "assay": "enzyme inhibition, Ki calculated from IC50 by the Cheng-Prusoff equation, pH 7.4, 25 °C"}, "[20]": {"molecular_target": "T9, human thrombin (IHT, from human plasma, …)", "assay": "enzyme inhibition, Ki calculated from IC50 by the Cheng-Prusoff equation, pH 7.4, 25 °C"}, "[21]": {"molecular_target": "T1, human urokinase-type plasminogen …", "assay": "enzyme inhibition of human uPA, residual activity"}},
  "note": "Numbered stars: 1 amine (or outer) side, 2 acyl side, 3 side chain; on linkers, the order of the positions; unused ones are H or OH. Bridge positions count the residues as written; N and C are the ends. TBMB = c1c(C[*:1])cc(C[*:3])cc1C[*:2]",
  "data": [
    {"binder": "H-ACSRYEVDCRGRGSACG-NH2 (linker 2-9-16 via TBMB; SMILES CC(C)[C@@H]1NC(=O)[C@H](CCC(=O)O)NC(=O)[C@H](Cc2ccc(O)cc2)NC(=O)[C@H](CCCNC(=N)N)NC(=O)[C@H](CO)NC(=O)[C@@H](NC(=O)[C@H](C)N)CSCc2cc3cc(c2)CSC[C@H](NC(=O)[C@H](CC(=O)O)NC1=O)C(=O)N[C@@H](CCCNC(=N)N)C(=O)NCC(=O)N[C@@H](CCCNC(=N)N)C(=O)NCC(=O)N[C@@H](CO)C(=O)N[C@@H](C)C(=O)N[C@H](C(=O)NCC(N)=O)CSC3, Synthetic bicyclic peptide, 1903 Da after reaction with TBMB; also called clone 18; TBMB-cyclised UK18 peptide)", "values": [
      {"measurement": "fold better inhibition than of other serine proteases", "setting": "[1]", "result": "~1000", "unit": "fold"},
      {"measurement": "fold of Ki against the Ki of human uPA", "setting": "[2]", "result": "~1400", "unit": "fold"},
      {"measurement": "IC50 (µM), residual protease activity, substrate Z-Phe-Arg-AMC", "setting": "[3]", "result": 47.5, "unit": "µM"},
      {"measurement": "IC50 (µM), residual protease activity, substrate Z-Gly-Gly-Arg-AMC", "setting": "[4]", "result": 0.047, "unit": "µM"},
      {"measurement": "IC50 (µM), residual protease activity, substrate Z-Gly-Gly-Arg-AMC", "setting": "[5]", "result": 65.5, "unit": "µM"},
      {"measurement": "IC50 (µM), residual protease activity, substrate Z-Gly-Gly-Arg-AMC", "setting": "[6]", "result": 54.5, "unit": "µM"},
      {"measurement": "IC50 (µM), residual protease activity, substrate Z-Gly-Gly-Arg-AMC", "setting": "[7]", "result": 52.5, "unit": "µM"},
      {"measurement": "IC50 (µM), residual protease activity, substrate Z-Gly-Gly-Arg-AMC", "setting": "[8]", "result": 87.5, "unit": "µM"},
      {"measurement": "IC50 (µM), residual protease activity, substrate H-D-Val-Leu-Lys-AMC", "setting": "[9]", "result": 57.5, "unit": "µM"},
      {"measurement": "IC50 (µM), residual protease activity, substrate Boc-Phe-Ser-Arg-AMC", "setting": "[10]", "result": 63, "unit": "µM"},
      {"measurement": "IC50 (µM), residual protease activity, substrate Z-Gly-Gly-Arg-AMC", "setting": "[11]", "result": 36, "unit": "µM"},
      {"measurement": "Ki", "setting": "[12]", "result": 30.5, "unit": "µM"},
      {"measurement": "Ki", "setting": "[13]", "result": 0.03, "unit": "µM"},
      {"measurement": "Ki", "setting": "[14]", "result": 42, "unit": "µM"},
      {"measurement": "Ki", "setting": "[15]", "result": 34.9, "unit": "µM"},
      {"measurement": "Ki", "setting": "[16]", "result": 33.7, "unit": "µM"},
      {"measurement": "Ki", "setting": "[17]", "result": 56.1, "unit": "µM"},
      {"measurement": "Ki", "setting": "[18]", "result": 36.9, "unit": "µM"},
      {"measurement": "Ki", "setting": "[19]", "result": 40.4, "unit": "µM"},
      {"measurement": "Ki", "setting": "[20]", "result": 23.1, "unit": "µM"}
    ]},
    {"binder": "H-ASSRYEVDSRGRGSASG-NH2 (Not conjugated to TBMB; M = 1740.0 Da; also called UK18ser)", "values": [
      {"measurement": "Ki", "setting": "[21]", "result": 5.8, "unit": "µM"},
      {"measurement": "fold weaker inhibition than the TBMB-cyclised UK18 peptide", "setting": "[21]", "result": "~200", "unit": "fold"}
    ]}
  ]
}
